Measurements as given in patent US20170247465A1, “COMBINATION THERAPY FOR TREATMENT OF CANCER” (OncoMed Pharmaceuticals, Inc., priority 2014, published 2017).
Entries after “also recorded” stand apart in the source; their conditions may differ.

How the values were obtained:
Type in all cases: in vivo, NOD/SCID mice
[1] = tested on: cancer stem cells in OMP-LU77 lung tumors; assay: Limiting dilution assay, cancer stem cell frequency in OMP-LU77 lung tumors (Example 7); conditions: tumors from mice treated with vantictumab administered prior to paclitaxel; 50, 150, 500 cells implanted, 79 days; FIG. 5B
Source text: FIGS. 5A-5B. Cancer Stem Cell frequency. FIG. 5A. Tumor growth in mice following implantation of 50, 150, or 500 OMP-LU77 tumor cells obtained from mice that had been treated with either control antibody (Control mAb), paclitaxel (Pac), or the combination of OMP-18R5 and paclitaxel (Van+Pac). FIG. 5B. Cancer stem cell (CSC) frequency in OMP-LU77 lung tumors following treatment with control antibody (Control mAb), paclitaxel, or a combination of OMP-18R5 antibody and paclitaxel (Van+Pac) as determined by limiting dilution analysis.
Limiting dilution assays (LDAs) can be used to assess the effect of Wnt pathway inhibitors on solid tumor cancer stem cells and/or on the tumorigenicity of a tumor. The assays can be used to determine the frequency of cancer stem cells in tumors from animals treated with the Wnt pathway inhibitor and to compare that frequency to the frequency of cancer stem cells in tumors from control animals. […]
For the LDA, the tumor cells in the suspension were harvested, counted, and appropriate cell doses (50, 150, and 500 cells) were injected subcutaneously in NOD/SCID mice (10 mice per cell dose per treatment group). […] The percentage of mice with detectable tumors was determined in all treatment groups and compared to the percentage of mice with detectable tumors in the controls. […]

[2] = tested on: OMP-B90 breast tumor cells; assay: OMP-B90 breast tumor xenograft, staggered dosing of Wnt inhibitors and paclitaxel (Example 9); conditions: Wnt pathway inhibitor 25 mg/kg every two weeks, administered 2 days prior to paclitaxel 10 mg/kg once a week, i.p., FIG. 7
Procedure: FIG. 7A-7B. Inhibition of breast tumor growth in vivo by a Wnt pathway inhibitor in combination with a taxane using a staggered dosing schedule. FIG. 7A. OMP-B90 breast tumor cells were injected subcutaneously into NOD/SCID mice. Mice were treated with control antibody (-•-), paclitaxel (-▴-), a combination of OMP-18R5 and paclitaxel, where OMP-18R5 was administered on the same day as paclitaxel (-□-), or a combination of OMP-18R5 and paclitaxel, where OMP-18R5 was administered 2 days prior to administration of paclitaxel (-⋄-). FIG. 7B. OMP-B90 breast tumor cells were injected subcutaneously into NOD/SCID mice. Mice were treated with control antibody (-•-), OMP-54F28 (-▪-), paclitaxel (-▴-), a combination of OMP-54F28 and paclitaxel, where OMP-54F28 was administered on the same day as paclitaxel (-□-), or a combination of OMP-54F28 and paclitaxel, where OMP-54F28 was administered 2 days prior to administration of paclitaxel (-⋄-). OMP-18R5, OMP-54F28 and control antibody were administered at 25 mg/kg and paclitaxel was administered at 10 mg/kg. […]
(§1) Single cell suspensions of xenograft OMP-B90 breast tumor cells were injected subcutaneously into 6-8 week old NOD/SCID mice. […] Tumor growth was monitored and tumor volumes were measured with electronic calipers at the indicated time points. Data are expressed as mean±S.E.M.

[3] = tested on: OMP-OV40 ovarian tumor cells; assay: OMP-OV40 ovarian tumor xenograft, staggered dosing of Wnt inhibitors and paclitaxel (Example 11); conditions: Wnt pathway inhibitor 25 mg/kg administered 2 days prior to paclitaxel 20 mg/kg, every two weeks i.p.; versus single agents; FIG. 9
Procedure: FIG. 9A-9B. Inhibition of ovarian tumor growth in vivo by a Wnt pathway inhibitor in combination with a taxane using a staggered dosing schedule. FIG. 9A. OMP-OV40 ovarian tumor cells were injected subcutaneously into NOD/SCID mice. Mice were treated with control antibody (-•-), OMP-18R5 (-▴-), paclitaxel (-▪-), or a combination of OMP-18R5 and paclitaxel, where OMP-18R5 was administered 2 days prior to administration of paclitaxel (-⋄-). […]. OMP-OV40 ovarian tumor cells were injected subcutaneously into NOD/SCID mice. Mice were treated with control antibody (-•-), OMP-54F28 (-▴-), paclitaxel (-▪-), or a combination of OMP-54F28 and paclitaxel, where OMP-54F28 was administered 2 days prior to administration of paclitaxel (-⋄-). OMP-18R5, OMP-54F28 and control antibody were administered at 25 mg/kg and paclitaxel was administered at 20 mg/kg. Agents were administered once every two weeks and administered intraperitoneally. Data is shown as tumor volume (mm^3) over days post treatment.
as §1, with “OMP-OV40 ovarian” for “OMP-B90 breast”, “mice. Tumors were allowed to grow until they reached an average volume of approximately 128 mm^3.” for “mice.”

B1: OMP-18R5: anti-FZD antibody, IgG2, also known as vantictumab; heavy chain SEQ ID NO:3, light chain SEQ ID NO:4 (antibody)
heavy: EVQLVESGGGLVQPGGSLRLSCAASGFTFSHYTLSWVRQAPGKGLEWVSVISGDGSYTYYADSVKGRFTISSDNSKNTLYLQMNSLRAEDTAVYYCARNFIKYVFANWGQGTLVTVSSASTKGPSVFPLAPCSRSTSESTAALGCLVKDYFPEPVTVSWNSGALTSGVHTFPAVLQSSGLYSLSSVVTVPSSNFGTQTYTCNVDHKPSNTKVDKTVERKCCVECPPCPAPPVAGPSVFLFPPKPKDTLMISRTPEVTCVVVDVSHEDPEVQFNWYVDGVEVHNAKTKPREEQFNSTFRVVSVLTVVHQDWLNGKEYKCKVSNKGLPAPIEKTISKTKGQPREPQVYTLPPSREEMTKNQVSLTCLVKGFYPSDIAVEWESNGQPENNYKTTPPMLDSDGSFFLYSKLTVDKSRWQQGNVFSCSVMHEALHNHYTQKSLSLSPGK
light: DIELTQPPSVSVAPGQTARISCSGDNIGSFYVHWYQQKPGQAPVLVIYDKSNRPSGIPERFSGSNSGNTATLTISGTQAEDEADYYCQSYANTLSLVFGGGTKLTVLGQPKAAPSVTLFPPSSEELQANKATLVCLISDFYPGAVTVAWKADSSPVKAGVETTTPSKQSNNKYAASSYLSLTPEQWKSHRSYSCQVTHEGSTVEKTVAPTECS
[1]
  cancer stem cell frequency (limiting dilution analysis, L-Calc): significantly decreased the cancer stem frequency
[2]
  regression of established tumors: induced a regression of the established breast tumors
[2]; versus other dosing regimens
  inhibition of tumor growth (tumor volume): significantly better at inhibiting tumor growth of the OMP-B90 breast tumor cells than any of the other dosing regimens
[3]
  inhibition of tumor growth (tumor volume): inhibited tumor growth of the OMP-OV40 ovarian tumor cells to a greater extent than either the Wnt pathway inhibitors or paclitaxel alone; also recorded: inhibited tumor growth
